Assay [1] concerns the target T1, Human TNF (human, UniProt P01375 77-233). The experiment in a line: cell-based or functional assay.
The target of a further assay is T2, Cynomolgus monkey IL-17A (cynomolgus monkey, UniProt A0A2K5TTB0 24-155).
T2 construct: also called Cyno IL-17AA; Cyno IL17AA
The experiment in a line: SPR (Biacore T200), antibody captured by anti-human IgG Fc, antigen in solution. As to the method: (§1) The binding of antibodies to purified recombinant IL-17 proteins was determined by surface plasmon resonance-based measurements with a Biacore® T200 instrument (GE Healthcare) using running HBS-EP (10 mM HEPES [pH 7.4], 150 mM NaCl, 3 mM EDTA, and 0.005% surfactant P20) containing 0.1 mg/ml BSA at 25° C. All chemicals were obtained from Biacore® AB (GE Healthcare) or otherwise from a source as described in the text. Approximately 5000 RU of goat anti-human IgG (Fcg) fragment specific polyclonal antibody (Pierce Biotechnology Inc, Rockford, Ill.) diluted in 10 mM sodium acetate (pH 4.5) was directly immobilized across a CM5 research grade biosensor chip using a standard amine coupling kit according to manufacturer's instructions and procedures at 25 μg/ml. Unreacted moieties on the biosensor surface were blocked with ethanolamine. Modified carboxymethyl dextran surface in flowcell 2, 3 and 4 were used as a reaction surface. Modified carboxymethyl dextran with Goat IgG in flow cell 1 was used as the reference surface. For kinetic analysis, rate equations derived from the 1:1 Langmuir binding model were fitted simultaneously to association and dissociation phases of all six injections (using global fit analysis with local float for Rmax) with the use of Biacore T200 Evaluation software v.1.0. Purified antibodies were diluted in HEPES-buffered saline for capture across goat anti-human IgG specific reaction surfaces. Antibodies to be captured as ligand (1-5 μg/ml) were injected over reaction matrices at a flow rate of 50 μl/minute. Association phase was monitored for 5 minute, while dissociation phase was monitored for 10-60 min to accommodate for slower off-rates. The association and dissociation rate constants, ka (unit M-1 s-1) and kd (unit s-1) were determined under a continuous flow rate of 50 μl/minute. Rate constants were derived by making kinetic binding measurements at six different antigen concentrations ranging from 0.78 nM to 100 nM, depending on the species of IL-17 tested. The association ka, dissociation rate kd and equilibrium dissociation constant KD were calculated with the use of the same Biacore T200 Evaluation software v.1.0.
A general note: In SPR one partner is held on a chip, and binding of the other changes the refractive index at the surface.

The target in assay [2] is T3, Human IL-17A (human, UniProt Q16552 20-155, limits assumed).
T3 construct: Biotinylated in the ELISAs; purified recombinant protein in SPR; also called hIL17A; hIL-17
T3 sequence (Q16552 20-155 limits assumed): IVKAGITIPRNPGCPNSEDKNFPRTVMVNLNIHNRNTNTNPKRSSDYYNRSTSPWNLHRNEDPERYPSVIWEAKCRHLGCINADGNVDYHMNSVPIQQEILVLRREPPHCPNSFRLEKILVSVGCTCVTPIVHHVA
The description is as above. As for the experimental part: as §1

Assay [3] has as its target T3, Human IL-17A. The experiment in a line: ELISA, captured antibody, biotin-human IL-17 titrated. As for the experimental part:
(§2) The following protocol is used to characterize the binding of IL-17 antibodies to human IL-17 by enzyme-linked immunosorbent assay (ELISA). An ELISA plate was coated with 50 μl per well of goat anti mouse IgG-Fc at 2 μg/ml, overnight at 4° C. The plate was washed 3 times with PBS/Tween. 50 μl Mab diluted to 1 μg/ml in PBS/0.1% BSA was added to appropriate wells and incubated for 1 hour at room temperature (RT). The plate was washed 3 times with PBS/Tween. 50 μl of serial diluted biotin-human IL-17 was added to appropriate wells and incubated for 1 hour at RT. The plate was washed 3 times with PBS/Tween. 50 μl of streptavidin-HRP diluted 1:10,000 in PBS/0.1% BSA was added to appropriate wells and incubated for 1 hour at RT. The plate was washed 3 times with PBS/Tween. 50 μl of TMB was added to appropriate wells and the reaction allowed to proceed for 1 minute. The reaction was stopped with 50 μl/well 2N H₂SO₄ and the absorbance read at 450 nm.
Background: An ELISA detects its analyte on a solid surface through an enzyme-linked reagent.

In assay [4] the target is T3, Human IL-17A. The experiment in a line: ELISA, captured DVD-Ig, biotin-human IL-17 titrated. The method in brief: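 Plate coated with goat anti-mouse IgG-Fc, then antibody captured at 1 μg/ml; serially diluted biotinylated human TNF or IL-17 added 1 h at RT. Bound ligand detected with streptavidin-HRP and TMB, absorbance at 450 nm.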
In assay [5] the target is T1, Human TNF. The experiment in a line: ELISA, captured DVD-Ig, biotin-human TNF titrated. As to the method: as §2, with “TNF/IL-17 DVD-Ig proteins” for “IL-17 antibodies”, “human TNF and” for “human”, “biotin-human TNF or” for “biotin-human”

The Kd is the free concentration of one partner at which half of the binding sites on the other are occupied at equilibrium, for simple one-to-one binding. One may read the koff as the rate constant with which the complex falls apart. A word on the kon: it is the rate constant with which the complex forms. As a reminder, the EC50 is the midpoint of the concentration-response curve.

T2 sequence (A0A2K5TTB0 entry or part of it): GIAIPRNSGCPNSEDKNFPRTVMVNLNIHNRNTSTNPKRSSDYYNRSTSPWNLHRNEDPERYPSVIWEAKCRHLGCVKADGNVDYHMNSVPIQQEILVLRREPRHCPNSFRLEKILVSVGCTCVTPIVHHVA
T1 sequence (P01375 77-233 limits assumed): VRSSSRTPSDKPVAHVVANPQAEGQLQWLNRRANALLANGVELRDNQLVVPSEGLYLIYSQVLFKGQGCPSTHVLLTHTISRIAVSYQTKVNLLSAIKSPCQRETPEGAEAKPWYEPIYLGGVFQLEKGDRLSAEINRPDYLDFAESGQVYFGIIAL

B1: h10F7-M10-hMAk195-24.8 DVD-Ig (bispecific antibody, human IgG1, kappa, L234A L235A)
heavy: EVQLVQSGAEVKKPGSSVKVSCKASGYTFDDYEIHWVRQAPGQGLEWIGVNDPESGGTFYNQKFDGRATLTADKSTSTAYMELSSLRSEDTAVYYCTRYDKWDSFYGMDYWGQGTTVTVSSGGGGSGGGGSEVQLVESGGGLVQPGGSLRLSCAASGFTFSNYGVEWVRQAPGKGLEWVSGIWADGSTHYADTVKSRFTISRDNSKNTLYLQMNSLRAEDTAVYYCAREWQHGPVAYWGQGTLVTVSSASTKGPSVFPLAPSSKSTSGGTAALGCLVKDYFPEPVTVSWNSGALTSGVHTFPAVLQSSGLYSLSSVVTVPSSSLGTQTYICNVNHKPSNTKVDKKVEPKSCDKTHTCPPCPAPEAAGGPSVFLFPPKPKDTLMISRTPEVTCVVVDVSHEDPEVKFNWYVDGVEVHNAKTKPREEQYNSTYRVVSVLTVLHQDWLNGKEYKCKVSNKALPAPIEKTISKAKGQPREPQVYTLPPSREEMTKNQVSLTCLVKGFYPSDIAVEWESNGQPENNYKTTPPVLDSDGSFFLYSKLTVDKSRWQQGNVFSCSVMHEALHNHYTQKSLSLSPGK
light: DIQMTQSPSSLSASVGDRVTITCSASSGSISYIDWFQQKPGKAPKRLIYATFELASGVPSRFSGSGSGTDFTLTISSLQPEDFATYYCHQLGSYPDTFGQGTKLEIKRGGSGGGGSGDIQMTQSPSSLSASVGDRVTITCKASQLVSSAVAWYQQKPGKAPKLLIYWASTLHTGVPSRFSGSGSGTDFTLTISSLQPEDFATYYCQQHYRTPFTFGQGTKLEIKRTVAAPSVFIFPPSDEQLKSGTASVVCLLNNFYPREAKVQWKVDNALQSGNSQESVTEQDSKDSTYSLSSTLTLSKADYEKHKVYACEVTHQGLSSPVTKSFNRGEC
For the molecule B1, the “Potency IC50 (nM), L929 bioassay, human TNF” value with Human TNF [1] came out at 2.56 nM.

B2: IL17-h10F7M11 hIgG1/K mut (antibody, V domains shown)
VH: EVQLVQSGAEVKKPGSSVKVSCKASGYTFTDYEIHWVRQAPGQGLEWMGVNDPESGGTFYNQKFDGRVTLTADESTSTAYMELSSLRSEDTAVYYCTRYSKWDSFDGMDYWGQGTTVTVSS
VL: DIQMTQSPSSLSASVGDRVTITCRASSGIISYIDWFQQKPGKAPKRLIYATFDLASGVPSRFSGSGSGTDYTLTISSLQPEDFATYYCRQVGSYPETFGQGTKLEIK
notes: Full length human IgG1/kappa, IgG1 mut(234,235); also called J439M1S3R5#11; PR-1263009
In the assay with Cynomolgus monkey IL-17A, B2 registered a Kd of 0.86 pM, an off-rate constant (koff) of 3.88e-06 s⁻¹ and a kon of 4.5e+06 M⁻¹ s⁻¹. In the assay with Human IL-17A [2], the dissociation constant Kd worked out at 1.59 pM, the koff worked out at 7.24e-06 s⁻¹ and the on-rate (kon) is 4.53e+06 M⁻¹ s⁻¹. The 50% effective concentration (EC50) in the assay with Human IL-17A [3] came out at 40 pM.

B3: IL17-h10F7M10 hIgG1/K mut (antibody, V domains shown)
VH: EVQLVQSGAEVKKPGSSVKVSCKASGYTFDDYEIHWVRQAPGQGLEWIGVNDPESGGTFYNQKFDGRATLTADKSTSTAYMELSSLRSEDTAVYYCTRYDKWDSFYGMDYWGQGTTVTVSS
VL: DIQMTQSPSSLSASVGDRVTITCSASSGSISYIDWFQQKPGKAPKRLIYATFELASGVPSRFSGSGSGTDFTLTISSLQPEDFATYYCHQLGSYPDTFGQGTKLEIK
notes: Full length human IgG1/kappa, IgG1 mut(234,235) (HC plasmid pHybE-hCg1,z,non-a,mut(234,235); LC pHybE-hCk); also called J439M1S3R5#10; PR-1262986
In the assay with Cynomolgus monkey IL-17A, B3 came in with an equilibrium dissociation constant (Kd) of 1.06 pM, a koff of 4.4e-06 s⁻¹ and an association rate constant (kon) of 4.14e+06 M⁻¹ s⁻¹. In the assay with Human IL-17A [2], this molecule showed a dissociation constant Kd of 1.53 pM, a koff of 6.8e-06 s⁻¹ and a kon of 4.45e+06 M⁻¹ s⁻¹. This molecule registered an EC50 with Human IL-17A [3] of 30 pM.

B4: IL17-h10F7M-B13 hIgG1/K mut (antibody, V domains shown)
VH: EVQLVQSGAEVKKPGSSVKVSCKASGYTFSDYEIHWVRQAPGQGLEWMGVNDPESGGTFYNQKFDGRVTLTADESTSTAYMELSSLRSEDTAVYYCTRYDKYWSFEGMDYWGQGTTVTVSS
VL: DIQMTQSPSSLSASVGDRVTITCRASSGIISYIDWFQQKPGKAPKRLIYATFDLASGVPSRFSGSGSGTDYTLTISSLQPEDFATYYCRQVGSYPETFGQGTKLEIK
notes: Full length human IgG1/kappa, IgG1 mut(234,235); also called h10F7-B13; J439M1S2(H)3 #B13
Regarding B4, in the assay with Human IL-17A [2], the Kd amounted to 2.56 pM, the koff was determined as 6.88e-06 s⁻¹ and the kon worked out at 2.68e+06 M⁻¹ s⁻¹. A half-maximal response with Human IL-17A [3] (EC50) required 60 pM.

B5: hMAK199-1-h10F7-M10.8 DVD-Ig (bispecific antibody, human IgG1, kappa, L234A L235A)
heavy: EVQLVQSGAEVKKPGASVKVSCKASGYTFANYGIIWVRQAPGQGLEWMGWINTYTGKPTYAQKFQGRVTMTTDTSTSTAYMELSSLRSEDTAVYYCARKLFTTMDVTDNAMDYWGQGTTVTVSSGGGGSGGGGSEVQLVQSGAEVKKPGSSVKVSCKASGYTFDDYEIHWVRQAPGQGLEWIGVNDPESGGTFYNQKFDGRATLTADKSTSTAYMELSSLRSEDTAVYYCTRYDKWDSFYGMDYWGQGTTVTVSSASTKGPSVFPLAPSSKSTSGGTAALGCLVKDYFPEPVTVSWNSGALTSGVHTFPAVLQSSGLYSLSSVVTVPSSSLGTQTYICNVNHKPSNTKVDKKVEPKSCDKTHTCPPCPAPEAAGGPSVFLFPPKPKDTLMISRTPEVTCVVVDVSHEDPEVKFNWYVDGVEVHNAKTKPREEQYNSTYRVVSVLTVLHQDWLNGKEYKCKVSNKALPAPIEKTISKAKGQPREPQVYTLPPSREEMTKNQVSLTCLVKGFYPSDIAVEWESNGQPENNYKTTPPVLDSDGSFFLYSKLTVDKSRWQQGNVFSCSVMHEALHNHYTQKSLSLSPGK
light: DIQMTQSPSSLSASVGDRVTITCRASQDISQYLNWYQQKPGKAPKLLIYYTSRLQSGVPSRFSGSGSGTDFTLTISSLQPEDFATYFCQQGNTWPPTFGQGTKLEIKRGGSGGGGSGDIQMTQSPSSLSASVGDRVTITCSASSGSISYIDWFQQKPGKAPKRLIYATFELASGVPSRFSGSGSGTDFTLTISSLQPEDFATYYCHQLGSYPDTFGQGTKLEIKRTVAAPSVFIFPPSDEQLKSGTASVVCLLNNFYPREAKVQWKVDNALQSGNSQESVTEQDSKDSTYSLSSTLTLSKADYEKHKVYACEVTHQGLSSPVTKSFNRGEC
notes: DVD-Ig; IgG1 234,235 mut, kappa; GS10 linkers; also called HMAK199-1-GS10-H10F7-M10 DVD
B5: the concentration giving a half-maximal response (EC50) with Human IL-17A [4] amounted to 81 pM; with Human TNF [5], 220 pM. Also, in the assay with Human TNF [1], the “Potency IC50 (nM), L929 bioassay, human TNF” value was found to be 0.037 nM.

B6: hMAK199-1-h10F7-M11.8 YTE DVD-Ig (bispecific antibody, human IgG1, kappa, L234A L235A)
heavy: EVQLVQSGAEVKKPGASVKVSCKASGYTFANYGIIWVRQAPGQGLEWMGWINTYTGKPTYAQKFQGRVTMTTDTSTSTAYMELSSLRSEDTAVYYCARKLFTTMDVTDNAMDYWGQGTTVTVSSGGGGSGGGGSEVQLVQSGAEVKKPGSSVKVSCKASGYTFTDYEIHWVRQAPGQGLEWMGVNDPESGGTFYNQKFDGRVTLTADESTSTAYMELSSLRSEDTAVYYCTRYSKWDSFDGMDYWGQGTTVTVSSASTKGPSVFPLAPSSKSTSGGTAALGCLVKDYFPEPVTVSWNSGALTSGVHTFPAVLQSSGLYSLSSVVTVPSSSLGTQTYICNVNHKPSNTKVDKKVEPKSCDKTHTCPPCPAPEAAGGPSVFLFPPKPKDTLYITREPEVTCVVVDVSHEDPEVKFNWYVDGVEVHNAKTKPREEQYNSTYRVVSVLTVLHQDWLNGKEYKCKVSNKALPAPIEKTISKAKGQPREPQVYTLPPSREEMTKNQVSLTCLVKGFYPSDIAVEWESNGQPENNYKTTPPVLDSDGSFFLYSKLTVDKSRWQQGNVFSCSVMHEALHNHYTQKSLSLSPGK
light: DIQMTQSPSSLSASVGDRVTITCRASQDISQYLNWYQQKPGKAPKLLIYYTSRLQSGVPSRFSGSGSGTDFTLTISSLQPEDFATYFCQQGNTWPPTFGQGTKLEIKRGGSGGGGSGDIQMTQSPSSLSASVGDRVTITCRASSGIISYIDWFQQKPGKAPKRLIYATFDLASGVPSRFSGSGSGTDYTLTISSLQPEDFATYYCRQVGSYPETFGQGTKLEIKRTVAAPSVFIFPPSDEQLKSGTASVVCLLNNFYPREAKVQWKVDNALQSGNSQESVTEQDSKDSTYSLSSTLTLSKADYEKHKVYACEVTHQGLSSPVTKSFNRGEC
notes: DVD-Ig; IgG1 (234,235) mut with YTE mutations, kappa; GS10 linkers
As for B6, the half-maximal effective concentration (EC50) is 50 pM with Human IL-17A [4] and 100 pM in the assay with Human TNF [5].

B7: hMAK199-1-h10F7-M10.8 QL DVD-Ig (bispecific antibody, human IgG1, kappa, L234A L235A)
heavy: EVQLVQSGAEVKKPGASVKVSCKASGYTFANYGIIWVRQAPGQGLEWMGWINTYTGKPTYAQKFQGRVTMTTDTSTSTAYMELSSLRSEDTAVYYCARKLFTTMDVTDNAMDYWGQGTTVTVSSGGGGSGGGGSEVQLVQSGAEVKKPGSSVKVSCKASGYTFDDYEIHWVRQAPGQGLEWIGVNDPESGGTFYNQKFDGRATLTADKSTSTAYMELSSLRSEDTAVYYCTRYDKWDSFYGMDYWGQGTTVTVSSASTKGPSVFPLAPSSKSTSGGTAALGCLVKDYFPEPVTVSWNSGALTSGVHTFPAVLQSSGLYSLSSVVTVPSSSLGTQTYICNVNHKPSNTKVDKKVEPKSCDKTHTCPPCPAPEAAGGPSVFLFPPKPKDQLMISRTPEVTCVVVDVSHEDPEVKFNWYVDGVEVHNAKTKPREEQYNSTYRVVSVLTVLHQDWLNGKEYKCKVSNKALPAPIEKTISKAKGQPREPQVYTLPPSREEMTKNQVSLTCLVKGFYPSDIAVEWESNGQPENNYKTTPPVLDSDGSFFLYSKLTVDKSRWQQGNVFSCSVLHEALHNHYTQKSLSLSPGK
light: DIQMTQSPSSLSASVGDRVTITCRASQDISQYLNWYQQKPGKAPKLLIYYTSRLQSGVPSRFSGSGSGTDFTLTISSLQPEDFATYFCQQGNTWPPTFGQGTKLEIKRGGSGGGGSGDIQMTQSPSSLSASVGDRVTITCSASSGSISYIDWFQQKPGKAPKRLIYATFELASGVPSRFSGSGSGTDFTLTISSLQPEDFATYYCHQLGSYPDTFGQGTKLEIKRTVAAPSVFIFPPSDEQLKSGTASVVCLLNNFYPREAKVQWKVDNALQSGNSQESVTEQDSKDSTYSLSSTLTLSKADYEKHKVYACEVTHQGLSSPVTKSFNRGEC
notes: DVD-Ig; IgG1 (234,235) mut with QL mutations, kappa; GS10 linkers
Regarding B7, the values for the 50% effective concentration (EC50) with Human IL-17A [4] and with Human TNF [5] were 63 pM and 183 pM, respectively.

These data come from US20140161804A1 (AbbVie / Abbott, published 2014).
